Measured values as given in US20170173114A1, “METHODS AND COMPOSITIONS FOR INDUCTION OF UCP1 EXPRESSION” (Joslin Diabetes Center, Inc., priority 2014, published 2017).

What was measured:
Type in all cases: cell-based, murine
UCP1 = UCP1 mRNA expression (Q-RT-PCR) in WT-1 brown preadipocytes; conditions: for expression of UCP1: 200 ng/mL with insulin and T3, three days
Method: (§1) Total RNA was isolated with QIAzol lysis reagent (Qiagen, Valencia, Calif.) and purified by RNeasy Mini columns (Qiagen) following the manufacture's instructions. cDNA was prepared from total RNA using the Advantage RT-PCR kit (BD Biosciences, Palo Alto, Calif.) according to manufacturer's instructions. Diluted cDNA was used in a PCR reaction with SYBR Green Master Mix (Applied Biosystems, Foster City, Calif.) and primers specifically designed for detection of the gene of interest. PCR reactions were run in duplicate for each sample and quantitated in the ABI Sequence Detection System (Applied Biosystems). Data were expressed as arbitrary units after normalization to levels of expression of internal controls for each sample. Sequences of primers for specific genes are each obtained from the published literature or designed using publically available gene sequence databases. Unless otherwise indicated, gene expression data described in the examples below was obtained using QPCR.
The effect of FGF6 on differentiation of WT-1 murine brown preadipocytes was also examined. WT-1 cells can be induced to undergo brown adipocyte differentiation, characterized by lipid accumulation and expression of adipogenic and brown fat markers, as described above (Klein et al. (1999) J Biol Chem 274:34795; Tseng et al. (2005) Nat Cell Biol 7:601). WT-1 cells were treated with FGF6 in growth media (DMEM+10% FBS), a vehicle control (“control” or “C” referred to in FIGS. 3A-D), or induction media (“induction” or “I” referred to in FIGS. 3A-D) as described above for seven days. Following the treatment, cells were examined for the color of the culture media in combination with oil Red O staining, expression of adipogenic markers, expression of brown fat markers, immunofluorescent staining of cells with UCP1 and DPAI, and Western blot analysis to determine the presence of UCP1 and β-tubulin. The results are described in FIGS. 3A to 3D.
UCP1 mRNA expression in brown adipocyte cells was determined at FGF6 concentrations ranging from 0 to 300 ng/ml in the absence of induction cocktail.
In order to determine the length of time necessary to induce UCP1 expression upon exposure to of cells to FGF6, an experiment was performed whereby FGF6 was administered to brown preadipocytes at a concentration of 200 ng/ml and UCP1 expression was determined. FGF21 and a control were also used in the time course experiment. FGF21, a member of the endocrine FGF ligands that has been implicated in the browning of white fat (Fisher F. M. et al., Genes Dev. 26:271-281, 2012). […] FGF6 could acutely induce a significant increase of UCP1 expression as early as 4 hours after a 200 ng/ml dose, as described in FIG. 4B. At 24 hours, the fold-induction of UCP1 mRNA by FGF6 reached 700-fold higher than the untreated cells, as described in FIG. 4B.
To assess FGF6's role in the regulation of mitochondrial activity, FGF6 was stably expressed in WT-1 brown preadipocytes and 3T3-F442A white preadipocytes. Stable cells were generated by viral infection followed by drug selection.
FGF2, FGF6 and FGF9 were used at a dosage of 50 ng/mL, 100 ng/mL, 200 ng/mL or 300 ng/mL. FGF21 was used at the dosage of 50 ng/ml and 500 ng/mL. The concentration of BMP7 was 3.3 nM. RNA was isolated and UCP1 and PPARγ expression levels were evaluated by quantitative reverse transcription polymerase chain reaction (Q-RT-PCR) analysis after 24 hours (i.e., 1 day) (FIG. 14A), 2 days (FIG. 14B), 5 days (FIG. 14C) and 7 days (FIG. 14D) of treatment. All experiments were performed triplicate and the data are presented as mean+/−SEM.
FGF2, FGF6 and FGF9 were used at a dosage of 200 ng/mL. FGF21 was used at a dosage of 500 ng/mL. The concentration of BMP7 was 3.3 nM. mRNA was isolated and UCP1 and PPARγ expression levels were evaluated by quantitative reverse transcription polymerase chain reaction (Q-RT-PCR) analysis after 24 hours (i.e., 1 day), 2 days, 5 days and 7 days of treatment (FIG. 15). […]

UCP1 and PTGS2 = UCP1 and PTGS2 mRNA in WT-1 cells undergoing adipocyte differentiation; conditions: after induction media; 200 ng/mL FGF or 3.3 nM BMP7, 2 days
Method: In a separate experiment investigating the ability of FGF proteins to induce UCP1 expression in cells undergoing adipocyte differentiation, WT-1 preadipocyte cells were differentiated by culturing in growth media supplemented with insulin (20 nM) and triiodothyronine (T3, 1 nM) for 3 days, followed by incubation in an induction media (growth medium supplemented 20 nM insulin, 1 nM T3, 0.5 mM isobutyl-methylxanthine, 5 μM dexamethasone) for 2 days. The cell were then exposed to BMP7 (3.3 nM) or 200 ng/mL of FGF2, FGF6 or, FGF9 in growth media supplemented with insulin (20 nM) and triodothyronine (T3, 1 nM) for 2 additional days. Cells were harvested and UCP1 and PTGS2 mRNA expression levels were determined according to the quantitative RT-PCR assay described above. Experiments were performed in triplicate and the data presented as mean+/−SEM.

PTGS2 (COX2) = assay: PTGS2 mRNA / COX2 protein expression in WT-1 brown preadipocytes; conditions: for PTGS2 mRNA expression relative to the control: 200 ng/mL with insulin and T3, three days
Method: as §1
Cells were harvested in lysis buffer (50 mM HEPES, 137 mM NaCl, 1 mM MgCl2, 1 mM CaCl2, 10 mM Na2P2O7, 10 mM NaF, 2 mM EDTA, 10% glycerol, 1% Igepal CA-630, 2 mM vanadate, 10 μg/ml of leupeptin, 10 μg/ml of aprotinin, 2 mM phenylmethylsulfonyl fluoride; pH 7.4). After lysis, lysates were clarified by centrifugation at 12,000×g for 20 min at 4° C., the amount of protein in the supernatants was determined by the Bradford Protein Assay (Bio-Rad Laboratories, Hercules, Calif.). Proteins were directly solubilized in Laemmli sample buffer. Equal amounts of lysates were separated by sodium dodecyl sulfate-polyacrylamide gel electrophoresis and transferred to Immobolin-P membranes. Membranes were blocked overnight at 4° C. and incubated with the indicated antibody for 2 hours at room temperature. Specifically bound primary antibodies were detected with peroxidase-coupled secondary antibody and enhanced chemiluminescence (ECL, Amersham Biosciences, Piscataway, N.J.).
To determine if FGF4, FGF5, FGF6, FGF10, FGF16, FGF17, FGF18 or FGF20 induced either UCP1 mRNA or PTGS2 mRNA expression, murine brown preadipocyte WT-1 cells (Tseng et al., Nat. Cell. Biol. (2005) 7(6):601-611) were grown in growth media (DMEM-high glucose+10% FBS) supplemented with FGF4, FGF5, FGF6, FGF10, FGF16, FGF17, FGF18, FGF20 or buffer (control) in combination with insulin (20 nM) and triidothyronine (T3, 1 nM) for three days. All FGFs were used at a dosage of 200 ng/mL. mRNA was isolated and UCP1 and PTGS2 gene expression levels were evaluated by quantitative reverse transcription polymerase chain reaction (Q-RT-PCR) analysis. All experiments were performed triplicate and the data are presented as mean+/−SEM.
To determine if FGF1 or FGF10 induce UCP1 mRNA expression or PTGS2 mRNA expression, murine brown preadipocyte WT-1 cells (Tseng et al., Nat. Cell. Biol. (2005) 7(6):601-611) were grown in growth media (DMEM-high glucose+10% FBS) supplemented with FGF1, FGF10 or vehicle (control) in combination with insulin (20 nM) and triidothyronine (T3, 1 nM) for three days. FGF1 and FGF10 were used at a dosage of 50 ng/mL, 100 ng/mL or 300 ng/mL. mRNA was isolated and UCP1 and PTGS2 expression levels were evaluated by quantitative reverse transcription polymerase chain reaction (Q-RT-PCR) analysis. All experiments were performed triplicate and the data are presented as mean+/−SEM.
To test the role of specific prostaglandins (PGs) in activating UCP1 expression, WT-1 brown adipocytes were pretreated with PGE2, PGI2 and FGF6 for 24 hours. mRNA expression levels of UCP1, PTGS2, LDHA, PDK1 and PKM2 were then measured.

[1] = FGF21 50 and 500 ng/mL, BMP7 3.3 nM, with insulin and T3
[2] = 50, 100 or 300 ng/mL with insulin and T3, three days, FGF1 effect at 300 ng/ml
[3] = 50 ng/mL and 200 ng/mL with insulin and T3, three days

B1: FGF5: fibroblast growth factor 5, recombinant human, R&D Systems (protein, listed as Homo sapiens)
chain: MSLSFLLLLFFSHLILSAWAHGEKRLAPKGQPGPAATDRNPRGSSSRQSSSSAMSSSSASSSPAASLGSQGSGLEQSSFQWSPSGRRTGSLYCRVGIGFHLQIYPDGKVNGSHEANMLSVLEIFAVSQGIVGIRGVFSNKFLAMSKKGKLHASAKFTDDCKFRERFQENSYNTYASAIHRTEKTGREWYVALNKRGKAKRGCSPRVKPQHISTHFLPRFKQSEQPELSFTVTVPEKKKPPSPIKPKIPLSAPRKNTNSVKYRLKFRFG
expression of UCP1 (UCP1): not induced

B2: BMP7: bone morphogenetic protein 7, rhBMP7 provided by Stryker Regenerative Medicine (protein, UniProt P18075 293-431, looked up)
Bone morphogenetic protein 7: STGSKQRSQNRSKTPKNQEALRMANVAENSSSDQRQACKKHELYVSFRDLGWQDWIIAPEGYAAYYCEGECAFPLNSYMNATNHAIVQTLVHFINPETVPKPCCAPTQLNAISVLYFDDSSNVILKKYRNMVVRACGCH
UCP1 expression level at day 7 (UCP1; [1]): only minimal amounts | UCP1 expression level at days 1, 2 and 5 (UCP1; [1]): did not express detectable amounts of UCP1 | PTGS2 mRNA expression in cells undergoing adipocyte differentiation (UCP1 and PTGS2): minimal levels | UCP1 mRNA expression in cells undergoing adipocyte differentiation (UCP1 and PTGS2): minimal levels

B3: FGF10: fibroblast growth factor 10, keratinocyte growth factor 2 (protein, listed as Homo sapiens)
chain: MWKWILTHCASAFPHLPGCCCCCFLLLFLVSSVPVTCQALGQDMVSPEATNSSSSSFSSPSSAGRHVRSYNHLQGDVRWRKLFSFTKYFLKIEKNGKVSGTKKENCPYSILEITSVEIGVVAVKAINSNYYLAMNKKGKLYGSKEFNNDCKLKERIEENGYNTYASFNWQHNGRQMYVALNGKGAPRRGQKTRRKNTSAHFLPMVVHS
expression of UCP1 (UCP1): not induced | UCP1 mRNA expression (UCP1; [2]): did not induce expression | PTGS2 mRNA expression (PTGS2 (COX2); [2]): did not induce expression

B4: FGF4: fibroblast growth factor 4, recombinant human, R&D Systems (protein, listed as Homo sapiens)
chain: MSGPGTAAVALLPAVLLALLAPWAGRGGAAAPTAPNGTLEAELERRWESLVALSLARLPVAAQPKEAAVQSGAGDYLLGIKRLRRLYCNVGIGFHLQALPDGRIGGAHADTRDSLLELSPVERGVVSIFGVASRFFVAMSSKGKLYGSPFFTDECTFKEILLPNNYNAYESYKYPGMFIALSKNGKTKKGNRVSPTMKVTHFLPRL
UCP1 mRNA expression (UCP1; [3]): high levels of UCP1 mRNA expression | PTGS2 mRNA expression relative to the control (PTGS2 (COX2)): increased

B5: FGF17: fibroblast growth factor 17 (protein, listed as Homo sapiens)
chain: MGAARLLPNLTLCLQLLILCCQTQGENHPSPNFNQYVRDQGAMTDQLSRRQIREYQLYSRTSGKHVQVTGRRISATAEDGNKFAKLIVETDTFGSRVRIKGAESEKYICMNKRGKLIGKPSGKSKDCVFTEIVLENNYTAFQNARHEGWFMAFTRQGRPRQASRSRQNQREAHFIKRLYQGQLPFPNHAEKQKQFEFVGSAPTRRTKRTRRPQPLT
PTGS2 mRNA expression relative to the control (PTGS2 (COX2)): increased

B6: FGF18: fibroblast growth factor 18 (protein, listed as Homo sapiens)
chain: MYSAPSACTCLCLHFLLLCFQVQVLVAEENVDFRIHVENQTRARDDVSRKQLRLYQLYSRTSGKHIQVLGRRISARGEDGDKYAQLLVETDTFGSQVRIKGKETEFYLCMNRKGKLVGKPDGTSKECVFIEKVLENNYTALMSAKYSGWYVGFTKKGRPRKGPKTRENQQDVHFMKRYPKGQPELQKPFKYTTVTKRSRRIRPTHPA
PTGS2 mRNA expression relative to the control (PTGS2 (COX2)): increased

B7: FGF22: fibroblast growth factor 22 (protein, listed as Homo sapiens)
chain: MRRRLWLGLAWLLLARAPDAAGTPSASRGPRSYPHLEGDVRWRRLFSSTHFFLRVDPGGRVQGTRWRHGQDSILEIRSVHVGVVVIKAVSSGFYVAMNRRGRLYGSRLYTVDCRFRERIEENGHNTYASQRWRRRGQPMFLALDRRGGPRPGGRTRRYHLSAHFLPVLVS
UCP1 mRNA expression (UCP1; [3]): not detectably induced
